Experimental data taken from paper PMC3660561, “Crystal Structure of DmdD, a Crotonase Superfamily Enzyme That Catalyzes the Hydration and Hydrolysis of Methylthioacryloyl-CoA” (PLoS ONE, 2013).
Positions count from the first letter of the chain named. Names may count otherwise.

B1: Ruegeria pomeroyi DmdD, wild type (enzyme)
chain: MTQDVTSGYSNLDLDLRDNGVCVVTLNRPDKRNALDVATIEELVTFFSTAHRKGVRAVVLTGAGDHFCAGLDLVEHWKADRSADDFMHVCLRWHEAFNKMEYGGVPIIAALRGAVVGGGLELASAAHLRVMDQSTYFALPEGQRGIFTGGGATIRVSDMIGKYRMIDMILTGRVYQGQEAADLGLAQYITEGSSFDKAMELADKIASNLPLTNFAICSAISHMQNMSGLDAAYAEAFVGGIVNTQPAARERLEAFANKTAARVRPNS
notes: DmdD (methylthioacryloyl-CoA hydratase) of Ruegeria pomeroyi, sub-cloned into pET26b; Hexamer (dimer of trimers); The C-terminal His-tag was not cleaved before crystallization; also called wild-type DmdD; free enzyme; not shown: His6, C-terminal, kept
B2: DmdD (Ruegeria pomeroyi DSS-3; E141A) (protein)
chain: B1 chain with E141A
notes: pET26b, C-terminal hexahistidine tag (not cleaved before crystallization), expressed in E. coli BL21(DE3) Star; homohexamer (dimer of trimers)
B3: Ruegeria pomeroyi DmdD E121A mutant (enzyme)
chain: B1 chain with E121A
notes: DmdD (methylthioacryloyl-CoA hydratase) of Ruegeria pomeroyi with the E121A mutation (QuikChange); crystals soaked with MTA-CoA or MMPA-CoA; PDB 4IZB is the wild-type parent; source: E. coli, purified following the same protocol as for the wild-type protein; not shown: His6, C-terminal, kept

Experiments:
[1] = target: the molecule itself; assay: crystal structure; wild-type DmdD free enzyme, 1.5 Å; space group P2(1)3, two monomers in the asymmetric unit, hexamer generated by the crystallographic 3-fold axis; crystals from 100 mM Tris pH 8.5, 25% PEG 3350, 200 mM NaCl, 20°C
[2] = substrate: CS/C=C/C(=O)SCCNC(=O)CCNC(=O)[C@H](O)C(C)(C)COP(=O)(O)OP(=O)(O)OC[C@H]1O[C@@H](n2cnc3c(N)ncnc32)[C@H](O)[C@@H]1OP(=O)(O)O; assay: MeSH release by headspace gas chromatography; type: biochemical, Ruegeria pomeroyi; conditions: MeSH release (equivalent to hydration), 100 mM HEPES pH 7.4
Text: MeSH release by headspace gas chromatography on DmdD

purified protein [3] = substrate: CSCCC(=O)SCCNC(=O)CCNC(=O)[C@H](O)C(C)(C)COP(=O)(O)OP(=O)(O)OC[C@H]1O[C@@H](n2cnc3c(N)ncnc32)[C@H](O)[C@@H]1OP(=O)(O)O; assay: purified protein; type: biochemical, Ruegeria pomeroyi; conditions: CoA ester hydrolysis, 100 mM HEPES pH 7.4
purified protein [4] = substrate: C/C=C/C(=O)SCCNC(=O)CCNC(=O)[C@H](O)C(C)(C)COP(=O)(O)OP(=O)(O)OC[C@H]1O[C@@H](n2cnc3c(N)ncnc32)[C@H](O)[C@@H]1OP(=O)(O)O; assay: purified protein; type: biochemical, Ruegeria pomeroyi; conditions: hydration, 100 mM HEPES pH 7.4
purified protein [5] = substrate: CC(O)CC(=O)SCCNC(=O)CCNC(=O)[C@H](O)C(C)(C)COP(=O)(O)OP(=O)(O)OC[C@H]1O[C@@H](n2cnc3c(N)ncnc32)[C@H](O)[C@@H]1OP(=O)(O)O; assay: purified protein; type: biochemical, Ruegeria pomeroyi; conditions: CoA ester hydrolysis, 100 mM HEPES pH 7.4
[6] = target: the molecule itself; assay: crystal structure; E121A mutant crystals soaked 48 h with 10 mM MTA-CoA or MMPA-CoA, 1.8 Å; space group P2(1)3, two monomers in the asymmetric unit

Row | Protein | stoichiometry N [1] | Km [2] [µM] | kcat [2] [s⁻¹] | Km (purified protein [3]) [µM] | kcat (purified protein [3]) [s⁻¹] | Km (purified protein [4]) [µM] | kcat (purified protein [4]) [s⁻¹] | Km (purified protein [5]) [µM] | kcat (purified protein [5]) [s⁻¹] | stoichiometry N [6]
1 | B1 | 6 | 9.4 ± 2.1 | 47 ± 3 | 69.0 ± 16.4 | 0.9 ± 0.1 | 19.0 ± 3.1 | 42 ± 3 | 119 ± 20 | 13.2 ± 1.6 | –
2 | B2 | – | 63.3 ± 12.0 | 0.0036 ± 0.0004 | – | – | – | – | – | – | –
3 | B3 | – | – | – | – | – | – | – | – | – | 6
